Numbered stars: 1 amine (or outer) side, 2 acyl side, 3 side chain; on linkers, the order of the positions; unused ones are H or OH. Bridge positions count the residues as written; N and C are the ends. Side chains are listed from the residue outwards. Ends that are not written are not given here. * marks the point of attachment. C20 diacid = O=C(O)CCCCCCCCCCCCCCCCCCC(=O)*; γGlu = O=C(O)[C@H](CCC(=O)[*:2])N[*:1]
T1: human amylin receptor (amylin 3(a) receptor: human calcitonin receptor co-expressed with RAMP-3) (human, UniProt P30988 25-474; O60896 24-148, limits assumed)
T1 construct: whole, on cells; Used as cell membranes prepared from the Amylin 3(a)/CRE-luc BHK cells (Assay V); also called hAmylin-R; hAmylinR
T1 sequence (looked up) 1: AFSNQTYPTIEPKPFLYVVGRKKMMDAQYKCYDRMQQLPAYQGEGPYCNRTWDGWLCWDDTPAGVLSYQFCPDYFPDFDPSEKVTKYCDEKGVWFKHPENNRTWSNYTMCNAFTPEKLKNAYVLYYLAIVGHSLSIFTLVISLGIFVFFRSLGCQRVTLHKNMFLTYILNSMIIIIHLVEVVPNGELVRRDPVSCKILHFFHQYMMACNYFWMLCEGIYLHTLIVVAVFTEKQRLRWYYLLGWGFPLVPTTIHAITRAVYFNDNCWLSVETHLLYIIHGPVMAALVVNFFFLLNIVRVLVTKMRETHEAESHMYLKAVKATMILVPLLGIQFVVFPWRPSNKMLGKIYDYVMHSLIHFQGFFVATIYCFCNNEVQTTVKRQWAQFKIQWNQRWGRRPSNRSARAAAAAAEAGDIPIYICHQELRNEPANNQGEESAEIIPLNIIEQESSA
T1 sequence (looked up) 2: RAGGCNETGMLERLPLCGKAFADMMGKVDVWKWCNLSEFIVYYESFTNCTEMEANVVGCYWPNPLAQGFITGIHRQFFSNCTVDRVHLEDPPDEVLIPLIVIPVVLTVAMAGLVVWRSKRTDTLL


Biological target: T1, human amylin receptor (amylin 3(a) …)
Test: SPA displacement of 125I-rat amylin, hAmylin 3(a) receptor membranes
Summary of the method: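 Cell membranes were prepared by homogenisation in Na-HEPES/EDTA buffer, pH 7.4, and stored at −80° C. They were then coupled to SPA beads at 35 ng/μL final and exposed to compounds in assay buffer containing CaCl2, MgCl₂, OA and Tween20. After 120 min at 25° C, plates were counted and IC₅₀ derived.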

IC50	Binder
0.152 nM	K([γGlu-γGlu-C20 diacid])CNTATCATQRLAEFLRHSSPNFGAIPSSTNVGPNTF-NH2 (disulfide 2-7; N-terminus assumed; SMILES CC[C@H](C)[C@H](NC(=O)[C@H](C)NC(=O)CNC(=O)[C@H](Cc1ccccc1)NC(=O)[C@H](CC(N)=O)NC(=O)[C@@H]1CCCN1C(=O)[C@H](CO)NC(=O)[C@H](CO)NC(=O)[C@H](Cc1c[nH]cn1)NC(=O)[C@H](CCCNC(=N)N)NC(=O)[C@H](CC(C)C)NC(=O)[C@H](Cc1ccccc1)NC(=O)[C@H](CCC(=O)O)NC(=O)[C@H](C)NC(=O)[C@H](CC(C)C)NC(=O)[C@H](CCCNC(=N)N)NC(=O)[C@H](CCC(N)=O)NC(=O)[C@@H](NC(=O)[C@H](C)NC(=O)[C@@H]1CSSC[C@H](NC(=O)[C@@H](N)CCCCNC(=O)CC[C@H](NC(=O)CC[C@H](NC(=O)CCCCCCCCCCCCCCCCCCC(=O)O)C(=O)O)C(=O)O)C(=O)N[C@@H](CC(N)=O)C(=O)N[C@@H]([C@@H](C)O)C(=O)N[C@@H](C)C(=O)N[C@@H]([C@@H](C)O)C(=O)N1)[C@@H](C)O)C(=O)N1CCC[C@H]1C(=O)N[C@@H](CO)C(=O)N[C@@H](CO)C(=O)N[C@H](C(=O)N[C@@H](CC(N)=O)C(=O)N[C@H](C(=O)NCC(=O)N1CCC[C@H]1C(=O)N[C@@H](CC(N)=O)C(=O)N[C@H](C(=O)N[C@@H](Cc1ccccc1)C(N)=O)[C@@H](C)O)C(C)C)[C@@H](C)O)
0.426 nM	{C20 diacid-γGlu}-GRCNTATCATQRLAAFLRHSSPNFGAIPSSTNVGHNTY-NH2 (disulfide 3-8; SMILES CC[C@H](C)[C@H](NC(=O)[C@H](C)NC(=O)CNC(=O)[C@H](Cc1ccccc1)NC(=O)[C@H](CC(N)=O)NC(=O)[C@@H]1CCCN1C(=O)[C@H](CO)NC(=O)[C@H](CO)NC(=O)[C@H](Cc1c[nH]cn1)NC(=O)[C@H](CCCNC(=N)N)NC(=O)[C@H](CC(C)C)NC(=O)[C@H](Cc1ccccc1)NC(=O)[C@H](C)NC(=O)[C@H](C)NC(=O)[C@H](CC(C)C)NC(=O)[C@H](CCCNC(=N)N)NC(=O)[C@H](CCC(N)=O)NC(=O)[C@@H](NC(=O)[C@H](C)NC(=O)[C@@H]1CSSC[C@H](NC(=O)[C@H](CCCNC(=N)N)NC(=O)CNC(=O)CC[C@H](NC(=O)CCCCCCCCCCCCCCCCCCC(=O)O)C(=O)O)C(=O)N[C@@H](CC(N)=O)C(=O)N[C@@H]([C@@H](C)O)C(=O)N[C@@H](C)C(=O)N[C@@H]([C@@H](C)O)C(=O)N1)[C@@H](C)O)C(=O)N1CCC[C@H]1C(=O)N[C@@H](CO)C(=O)N[C@@H](CO)C(=O)N[C@H](C(=O)N[C@@H](CC(N)=O)C(=O)N[C@H](C(=O)NCC(=O)N[C@@H](Cc1c[nH]cn1)C(=O)N[C@@H](CC(N)=O)C(=O)N[C@H](C(=O)N[C@@H](Cc1ccc(O)cc1)C(N)=O)[C@@H](C)O)C(C)C)[C@@H](C)O)
0.114 nM	{C20 diacid-γGlu}-GRCNTATCATQRLAAFLRHSSPNFGAIPSSTNVGPNTY-NH2 (disulfide 3-8)
